In article PMC4861070 (ACS chemical biology, 2016) one finds Kd data, which are given here for 4 molecules.

Test [1] deals with H3K9me3 peptide (Homo sapiens) (UniProt P68431). Particulars: cited from earlier work.
The target in test [2] is H3K9me3S10ph peptide (Homo sapiens) (UniProt P68431). To be noted: cited from earlier work.
For test [3], the target named is Tudor domain of human PHF1 (aa 14–87) (human, UniProt O43189 14-87). As to the kind of experiment: NMR titration.
Test [4] deals with T1, BRPF1 PWWP domain (aa 1064–1214) (UniProt P55201 1064-1214).
T1 sequence (looked up): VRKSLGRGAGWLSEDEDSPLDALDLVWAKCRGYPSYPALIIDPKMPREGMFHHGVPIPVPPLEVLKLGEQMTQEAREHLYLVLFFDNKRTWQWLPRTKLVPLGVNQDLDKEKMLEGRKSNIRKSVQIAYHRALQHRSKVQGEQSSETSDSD
Put plainly: NMR titration.

Square brackets hold non-standard residues; d marks the D form. Ends that are not written are not given here. pY = N[C@@H](Cc1ccc(OP(=O)(O)O)cc1)C(=O)O; Lys(Me3) = C[N+](C)(C)CCCC[C@H](N)C(=O)O; pS = N[C@@H](COP(=O)(O)O)C(=O)O

Chain of Tudor domain of human PHF1 (aa 14–87) (O43189 14-87): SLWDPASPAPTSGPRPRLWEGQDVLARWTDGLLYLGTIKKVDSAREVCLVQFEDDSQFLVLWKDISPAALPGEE

As a reminder, the Kd is a measure of binding affinity in units of concentration. Regarding ATRX ADD (from UniProt P46100), the figures for the dissociation constant (Kd) in test [1] and in test [2] were 0.11 µM and 0.19 µM, respectively.

B1: histone H3.3K36me3 peptide (residues 27–45 of H3.3) (peptide, UniProt P84243 28-46, looked up)
peptide: KSAPSTGGV[Lys(Me3)]KPHRYRPGT
As to B1, the dissociation constant (Kd) in test [3] was 37 µM; in test [4] it was 3900 µM.

B2: histone H3.3K36me3Y41ph peptide (residues 27–45 of H3.3) (peptide, UniProt P84243 28-46, looked up)
peptide: KSAPSTGGV[Lys(Me3)]KPHR[pY]RPGT
For the molecule B2, the dissociation constant (Kd) in test [3] was determined as 480 µM; in test [4], 1800 µM.

B3: histone H3.3S31phK36me3 peptide (residues 27–45 of H3.3) (peptide, UniProt P84243 28-46, looked up)
peptide: KSAP[pS]TGGV[Lys(Me3)]KPHRYRPGT
Consider B3, for which the Kd in test [3] stood at 260 µM; in test [4], 2300 µM.
